Experiment [1] addresses T1, HCoV-229E S glycoprotein wild-type soluble ectodomain (residues 1-1116) with C-terminal GCN4 trimerization … (HCoV-229E, UniProt P15423 16-1116). Briefly: SPR; OpenSPR; hAPN immobilised on COOH sensor chip; S trimer peak 2 sample injected at 0, 6.25, 12.5, 25 and 50 nM; HBS-EP+ buffer; 298 K; one-to-one binding model. Particulars: both partners purified.
For experiment [2], the target named is T1, HCoV-229E S glycoprotein wild-type …. Kind of experiment: SPR; OpenSPR; hAPN immobilised on COOH sensor chip; S trimer peak 3 sample injected at 0, 3.13, 6.25, 12.5 and 25 nM; HBS-EP+ buffer; 298 K; one-to-one binding model. Particulars: both partners purified. (In SPR one partner is held on a chip, and binding of the other changes the refractive index at the surface.)

B1: human aminopeptidase N (receptor)
chain: DQSKAWNRYRLPNTLKPDSYRVTLRPYLTPNDRGLYVFKGSSTVRFTCKEATDVIIIHSKKLNYTLSQGHRVVLRGVGGSQPPDIDKTELVEPTEYLVVHLKGSLVKDSQYEMDSEFEGELADDLAGFYRSEYMEGNVRKVVATTQMQAADARKSFPCFDEPAMKAEFNITLIHPKDLTALSNMLPKGPSTPLPEDPNWNVTEFHTTPKMSTYLLAFIVSEFDYVEKQASNGVLIRIWARPSAIAAGHGDYALNVTGPILNFFAGHYDTPYPLPKSDQIGLPDFNAGAMENWGLVTYRENSLLFDPLSSSSSNKERVVTVIAHELAHQWFGNLVTIEWWNDLWLNEGFASYVEYLGADYAEPTWNLKDLMVLNDVYRVMAVDALASSHPLSTPASEINTPAQISELFDAISYSKGASVLRMLSSFLSEDVFKQGLASYLHTFAYQNTIYLNLWDHLQEAVNNRSIQLPTTVRDIMNRWTLQMGFPVITVDTSTGTLSQEHFLLDPDSNVTRPSEFNYVWIVPITSIRDGRQQQDYWLIDVRAQNDLFSTSGNEWVLLNLNVTGYYRVNYDEENWRKIQTQLQRDHSAIPVINRAQIINDAFNLASAHKVPVTLALNNTLFLIEERQYMPWEAALSSLSYFKLMFDRSEVYGPMKNYLKKQVTPLFIHFRNNTNNWREIPENLMDQYSEVNAISTACSNGVPECEEMVSGLFKQWMENPNNNPIHPNLRSTVYCNAIAQGGEEEWDFAWEQFRNATLVNEADKLRAALACSKELWILNRYLSYTLNPDLIRKQDATSTIISITNNVIGQGLVWDFVQSNWKKLFNDYGGGSFSFSNLIQAVTRRFSTEYELQQLEQFKKDNEETGFGSGTRALEQALEKTKANIKWVKENKEVVLQWFTENSK
As usually defined, the Kd is the free concentration of one partner at which half of the binding sites on the other are occupied at equilibrium, for simple one-to-one binding. A lower Kd goes with a tighter complex. Broadly, the koff is a measure of how fast the partners let go of each other. Read a high koff as fast dissociation. For orientation: kon means a measure of how fast the partners come together. Low values mean slower complex formation, high ones faster complex formation. In experiment [1], B1 gave a dissociation constant (Kd) of 36.3 nM, a dissociation rate constant (koff) of 0.00115 s⁻¹ and a kon of 31800 M⁻¹ s⁻¹. In experiment [2], binding was characterised by a dissociation constant (Kd) of 6.78 nM, the off-rate (koff) amounted to 0.000485 s⁻¹ and the on-rate constant (kon) came to 71500 M⁻¹ s⁻¹.

The values above are taken from paper PMC7794242, “Cryo-EM analysis of the HCoV-229E spike glycoprotein reveals dynamic prefusion conformational changes” (Nature Communications, 2021).
